The target in assay [1] is T1, CD22 (human, on CA46, Daudi and other human B-cell lines and on fresh patient leukemia cells) (human, UniProt P20273 20-847).
T1 construct: whole, on cells; also called CD22 antigen
T1 sequence (looked up): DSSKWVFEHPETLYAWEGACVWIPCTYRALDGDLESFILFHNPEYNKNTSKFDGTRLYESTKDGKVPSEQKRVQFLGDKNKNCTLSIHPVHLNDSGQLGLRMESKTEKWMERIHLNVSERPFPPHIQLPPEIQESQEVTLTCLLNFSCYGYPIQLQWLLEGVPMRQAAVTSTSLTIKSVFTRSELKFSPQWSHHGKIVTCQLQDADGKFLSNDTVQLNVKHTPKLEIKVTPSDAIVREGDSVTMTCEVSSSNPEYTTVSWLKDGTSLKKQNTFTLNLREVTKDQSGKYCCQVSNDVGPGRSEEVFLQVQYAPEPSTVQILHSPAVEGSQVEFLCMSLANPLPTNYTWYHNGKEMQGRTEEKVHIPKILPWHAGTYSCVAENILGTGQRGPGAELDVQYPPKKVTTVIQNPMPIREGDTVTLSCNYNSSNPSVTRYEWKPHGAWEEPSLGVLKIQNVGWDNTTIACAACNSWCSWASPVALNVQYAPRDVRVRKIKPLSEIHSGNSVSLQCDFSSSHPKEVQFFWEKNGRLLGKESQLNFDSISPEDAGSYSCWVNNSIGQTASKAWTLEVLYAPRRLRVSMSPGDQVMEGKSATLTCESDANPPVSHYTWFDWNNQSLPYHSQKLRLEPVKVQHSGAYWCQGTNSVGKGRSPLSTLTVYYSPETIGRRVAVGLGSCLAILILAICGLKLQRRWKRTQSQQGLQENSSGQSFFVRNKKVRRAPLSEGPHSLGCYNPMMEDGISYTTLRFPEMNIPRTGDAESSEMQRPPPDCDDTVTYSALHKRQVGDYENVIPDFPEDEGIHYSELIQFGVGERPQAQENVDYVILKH
Kind of assay: competition of unlabelled IgG against 125I-labelled RFB4 IgG on CA46 cells, 4 C, gamma counting.

The target in assay [2] is T1, CD22 (human, on CA46, Daudi and other …). The assay can be described thus: competition of unlabelled IgG against 125I-labelled RFB4 IgG on Daudi cells, 4 C, gamma counting.
A further assay deals with T2, murine CD22 (murine, UniProt P35329 22-708).
T2 sequence (looked up): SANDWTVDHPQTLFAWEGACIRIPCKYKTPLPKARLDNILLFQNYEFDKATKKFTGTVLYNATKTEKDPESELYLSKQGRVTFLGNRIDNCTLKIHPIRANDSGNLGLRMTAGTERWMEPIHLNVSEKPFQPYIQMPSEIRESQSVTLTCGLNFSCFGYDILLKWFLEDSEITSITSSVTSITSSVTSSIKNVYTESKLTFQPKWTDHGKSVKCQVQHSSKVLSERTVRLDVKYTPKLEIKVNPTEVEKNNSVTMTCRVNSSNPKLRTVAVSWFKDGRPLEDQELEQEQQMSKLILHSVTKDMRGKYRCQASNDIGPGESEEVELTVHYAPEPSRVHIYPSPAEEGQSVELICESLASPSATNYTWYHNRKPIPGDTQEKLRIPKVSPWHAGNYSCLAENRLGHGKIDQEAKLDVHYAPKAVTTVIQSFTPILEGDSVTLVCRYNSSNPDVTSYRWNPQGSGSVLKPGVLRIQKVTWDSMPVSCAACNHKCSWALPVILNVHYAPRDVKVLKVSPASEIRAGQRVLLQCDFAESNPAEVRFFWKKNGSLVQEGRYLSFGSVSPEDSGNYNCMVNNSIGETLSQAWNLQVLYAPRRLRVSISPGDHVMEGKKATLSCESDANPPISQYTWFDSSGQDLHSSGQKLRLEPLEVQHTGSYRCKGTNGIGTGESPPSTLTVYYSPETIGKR
Kind of assay: not described (told as the reason for the choice of monkeys).

Experimental findings from US7541034 (US Dept. of Health and Human Services, dated 2009) are described below.

The IC50 is the midpoint of a concentration-inhibition curve. A high value points to lower potency.

B1: RFB4 IgG (antibody, V domains shown)
VH: EVQLVESGGGLVKPGGSLKLSCAASGFAFSIYDMSWVRQTPEKRLEWVAYISSGGGTTYYPDTVKGRFTISRDNAKNTLYLQMSSLKSEDTAMYYCARHSGYGSSYGVLFAYWGQGTLVTVSA
VL: DIQMTQTTSSLSASLGDRVTISCRASQDISNYLNWYQQKPDGTVKLLIYYTSILHSGVPSRFSGSGSGTDYSLTISNLEQEDFATYFCQQGNTLPWTFGGGTKLEIK
notes: also called RFB4 mAb; native RFB4 IgG
As to B1, the IC50 is 4.5 nM in assay [1] and 10 nM in assay [2]. In the assay with murine CD22, the binding result is “no binding”.
